Target: T1, cytochrome f soluble domain lacking the transmembrane helix (Nostoc sp. PCC 7119, UniProt Q93SW9)
T1 chain: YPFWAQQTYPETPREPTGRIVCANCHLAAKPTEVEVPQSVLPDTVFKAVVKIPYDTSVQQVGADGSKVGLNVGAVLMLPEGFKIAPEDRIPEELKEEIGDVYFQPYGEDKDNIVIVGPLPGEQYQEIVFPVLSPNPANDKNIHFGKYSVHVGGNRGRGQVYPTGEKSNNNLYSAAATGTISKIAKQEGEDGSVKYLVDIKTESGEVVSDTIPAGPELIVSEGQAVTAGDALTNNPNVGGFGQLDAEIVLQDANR
Test: fluorescence titration

Kd: 70 µM
B1: plastocyanin (protein)
chain: ETYTVKLGSDKGLLVFEPAKLTIKPGDTVEFLNNKVPPHNVVFDAALNPAKSADLAKSLSHKQLLMSPGQSTSTTFPADAPAGEYTFYCEPHRGAGMVGKITVAG
